Paper PMC5884693 (Cell, 2018)

Biological target: the molecule itself
Assay: negative stain EM

B1: Drosophila Arc homologue dArc1 (natural protein, UniProt Q7K1U0 1-254, looked up)
chain: MAQLTQMTNEQLRELIEAVRAAAVGAAGSAAAAGGADASRGKGNFSACTHSFGGTRDHDVVEEFIGNIETYKDVEGISDENALKGISLLFYGMASTWWQGVRKEATTWKEAIALIREHFSPTKPAYQIYMEFFQNKQDDHDPIDTFVIQKRALLAQLPSGRHDEETELDLLFGLLNIKYRKHISRHSVHTFKDLLEQGRIIEHNNQEDEEQLATAKNTRGSKRTTRCTYCSFRGHTFDNCRKRQKDRQEEQHEE
**Q.** Does B1 bind?
**A.** binds
